Our source for the self-aminoacylation values is the supplement of paper PMC9233669.

The test system of one series is biotinyl-Ile-oxazolone. Put plainly: self-aminoacylation, catalytic enhancement (BIO) (fold over background); higher = more active; k-Seq, kA / k0A0; sequences stand for … in GGGAAUGGAUCCACAUCUACGAAUUC…UUCACUGCAGACUUGACGAAGCUG
In a few lines: (§1)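 Catalytic enhancement equals the median kA over the uncatalyzed rate, the latter read from the low-activity peak of a bimodal Gaussian fit. Values of kA came from fitting each sequence's fraction reacted to a pseudo-first-order model, with 1000 bootstraps. Reacted RNA was captured with streptavidin and quantified by triplicate qPCR and Illumina sequencing after 90 minutes at room temperature with 2–1250 μM biotinyl-aminoacyl-oxazolone and 0.43 μM mutagenized RNA pools bearing a 21-nt variable region.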

In a further series the test system is biotinyl-Leu-oxazolone. As to the kind of experiment: self-aminoacylation, catalytic enhancement (BLO) (fold over background); higher = more active; k-Seq, kA / k0A0; sequences stand for … in GGGAAUGGAUCCACAUCUACGAAUUC…UUCACUGCAGACUUGACGAAGCUG
In a few lines:
as §1

The test system of another series is biotinyl-Val-oxazolone. As to the kind of experiment: self-aminoacylation, catalytic enhancement (BVO) (fold over background); higher = more active; k-Seq, kA / k0A0; sequences stand for … in GGGAAUGGAUCCACAUCUACGAAUUC…UUCACUGCAGACUUGACGAAGCUG
In a few lines:
as §1

Another series deals with biotinyl-Phe-oxazolone. As to the kind of experiment: self-aminoacylation, catalytic enhancement (BFO) (fold over background); higher = more active; k-Seq, kA / k0A0; sequences stand for … in GGGAAUGGAUCCACAUCUACGAAUUC…UUCACUGCAGACUUGACGAAGCUG
A digest of the protocol: as §1

Another series deals with biotinyl-Trp-oxazolone. As to the kind of experiment: self-aminoacylation, catalytic enhancement (BWO) (fold over background); higher = more active; k-Seq, kA / k0A0; sequences stand for … in GGGAAUGGAUCCACAUCUACGAAUUC…UUCACUGCAGACUUGACGAAGCUG
A digest of the protocol:
as §1

The subject of a further series is biotinyl-Met-oxazolone. As to the kind of experiment: self-aminoacylation, catalytic enhancement (BMO) (fold over background); higher = more active; k-Seq, kA / k0A0; sequences stand for … in GGGAAUGGAUCCACAUCUACGAAUUC…UUCACUGCAGACUUGACGAAGCUG
A digest of the protocol: as §1

Variants at the floor of the assay were thinned out.

Turning to “CUACUUCAAACAGUCUGUCUG [Fam1A.1 aminoacylation ribozyme variant]”, the self-aminoacylation with biotinyl-Ile-oxazolone came out at 0.608; in the series on biotinyl-Leu-oxazolone it was 0.568; in the series with biotinyl-Val-oxazolone, 0.597; in the series with biotinyl-Phe-oxazolone it was 0.663; with biotinyl-Trp-oxazolone it was 0.337; with biotinyl-Met-oxazolone it was 0.515.
In the case of “AAGUUUGCUAAUCGUCGCACG [Fam3.1 aminoacylation ribozyme variant]”, the self-aminoacylation in the series on biotinyl-Ile-oxazolone was determined as 0.983; with biotinyl-Leu-oxazolone it was 1.16; in the series on biotinyl-Val-oxazolone, 0.873; in the series on biotinyl-Phe-oxazolone it was 0.692; in the series with biotinyl-Trp-oxazolone it was 0.937; in the series on biotinyl-Met-oxazolone, 0.842.
For “AAGUUUGCUUAUAGUCGCAAG [Fam3.1 aminoacylation ribozyme variant]”, the self-aminoacylation is 0.849 in the series on biotinyl-Ile-oxazolone; 0.768 in the series on biotinyl-Leu-oxazolone; 0.862 in the series with biotinyl-Val-oxazolone; 1.13 in the series on biotinyl-Phe-oxazolone; 0.847 in the series on biotinyl-Trp-oxazolone; 0.801 with biotinyl-Met-oxazolone.
On to “CUAAUGCAAACAAUCGGUCUG [Fam1A.1 aminoacylation ribozyme variant]”, for which the self-aminoacylation was 0.612 in the series with biotinyl-Ile-oxazolone; 0.55 in the series on biotinyl-Leu-oxazolone; 0.577 with biotinyl-Val-oxazolone; 0.853 with biotinyl-Phe-oxazolone; 0.581 with biotinyl-Trp-oxazolone; 0.631 with biotinyl-Met-oxazolone.
For the sequence “AUUCACCUAGGUGGUCGGGUG [Fam2.2 aminoacylation ribozyme variant]”, the self-aminoacylation was 2.49 with biotinyl-Ile-oxazolone; 4.09 with biotinyl-Leu-oxazolone; 2.77 in the series with biotinyl-Val-oxazolone; 18.3 with biotinyl-Phe-oxazolone; 3.42 in the series with biotinyl-Trp-oxazolone; 2.41 in the series with biotinyl-Met-oxazolone.
For the sequence “CUACUGCAAACAAUCGAUCUG [Fam1A.1 aminoacylation ribozyme variant]”, the self-aminoacylation in the series with biotinyl-Ile-oxazolone worked out at 0.705; with biotinyl-Leu-oxazolone, 0.663; with biotinyl-Val-oxazolone, 0.732; with biotinyl-Phe-oxazolone, 0.699; in the series with biotinyl-Trp-oxazolone, 0.679; with biotinyl-Met-oxazolone it was 0.937.
Regarding “CCACACUUCAAGUAAUCGGUG [Fam1B.1 aminoacylation ribozyme variant]”, the self-aminoacylation was 3.28 with biotinyl-Ile-oxazolone; 6.33 in the series with biotinyl-Leu-oxazolone; 2.98 with biotinyl-Val-oxazolone; 33.4 in the series with biotinyl-Phe-oxazolone; 4.68 with biotinyl-Trp-oxazolone; 4.68 in the series with biotinyl-Met-oxazolone.
As for “CUACUUUAAGCAAUCGGUCUG [Fam1A.1 aminoacylation ribozyme variant]”, the self-aminoacylation in the series on biotinyl-Ile-oxazolone turned out to be 0.721; in the series on biotinyl-Leu-oxazolone, 0.69; with biotinyl-Val-oxazolone, 0.685; in the series with biotinyl-Phe-oxazolone, 0.5; with biotinyl-Trp-oxazolone, 0.51; with biotinyl-Met-oxazolone it was 0.749.
“AUUACCCUGAUCAUCGAAUGA [Fam2.1 aminoacylation ribozyme variant]”: the self-aminoacylation in the series on biotinyl-Ile-oxazolone stood at 0.936; with biotinyl-Leu-oxazolone it was 0.898; in the series on biotinyl-Val-oxazolone, 0.871; with biotinyl-Phe-oxazolone it was 0.602; in the series on biotinyl-Trp-oxazolone, 0.561; in the series on biotinyl-Met-oxazolone, 0.93.
Consider “AUUCCCCUGGUCAUCGAGUGA [Fam2.1 aminoacylation ribozyme variant]”, for which the self-aminoacylation in the series with biotinyl-Ile-oxazolone came to 4; with biotinyl-Leu-oxazolone, 6.99; in the series with biotinyl-Val-oxazolone it was 4.37; in the series on biotinyl-Phe-oxazolone, 45.7; in the series with biotinyl-Trp-oxazolone, 8.4; in the series with biotinyl-Met-oxazolone it was 6.93.
For the sequence “CUACACUUUAAGCAAUCGGUC [Fam1B.1 aminoacylation ribozyme variant]”, the self-aminoacylation worked out at 0.768 in the series on biotinyl-Ile-oxazolone; 0.585 in the series on biotinyl-Leu-oxazolone; 0.74 in the series with biotinyl-Val-oxazolone; 0.979 with biotinyl-Phe-oxazolone; 0.565 with biotinyl-Trp-oxazolone; 0.63 in the series on biotinyl-Met-oxazolone.
As to “CUACACUUCAAGCAGUCGGUC [Fam1B.1 aminoacylation ribozyme variant]”, the self-aminoacylation is 0.775 with biotinyl-Ile-oxazolone; 0.741 in the series with biotinyl-Leu-oxazolone; 0.758 with biotinyl-Val-oxazolone; 0.895 with biotinyl-Phe-oxazolone; 0.628 in the series on biotinyl-Trp-oxazolone; 0.739 with biotinyl-Met-oxazolone.
Regarding “GUUACCCUGGUCAUGGAGUGA [Fam2.1 aminoacylation ribozyme variant]”, the self-aminoacylation is 3.51 in the series with biotinyl-Ile-oxazolone; 5.89 with biotinyl-Leu-oxazolone; 3.36 in the series with biotinyl-Val-oxazolone; 36.2 with biotinyl-Phe-oxazolone; 7.15 in the series with biotinyl-Trp-oxazolone; 4.85 in the series with biotinyl-Met-oxazolone.
As to “AUUACCCUGGUCAUCCCGUGA [Fam2.1 aminoacylation ribozyme variant]”, the self-aminoacylation was determined as 3.61 with biotinyl-Ile-oxazolone; 9.66 with biotinyl-Leu-oxazolone; 4.22 in the series with biotinyl-Val-oxazolone; 43.3 in the series with biotinyl-Phe-oxazolone; 9.33 in the series with biotinyl-Trp-oxazolone; 7.44 with biotinyl-Met-oxazolone.
“AUUCACCUAUGUCAUCGAGUG [Fam2.2 aminoacylation ribozyme variant]”: the self-aminoacylation in the series on biotinyl-Ile-oxazolone worked out at 3.35; in the series with biotinyl-Leu-oxazolone it was 5.42; with biotinyl-Val-oxazolone it was 2.98; in the series on biotinyl-Phe-oxazolone it was 17.2; with biotinyl-Trp-oxazolone, 4.95; with biotinyl-Met-oxazolone it was 4.64.
Regarding “AUUACCCUGGUCAUCAAGCGA [Fam2.1 aminoacylation ribozyme variant]”, the self-aminoacylation in the series on biotinyl-Ile-oxazolone turned out to be 0.846; with biotinyl-Leu-oxazolone it was 0.895; in the series with biotinyl-Val-oxazolone, 1.13; with biotinyl-Phe-oxazolone it was 0.84; in the series with biotinyl-Trp-oxazolone, 0.661; in the series with biotinyl-Met-oxazolone it was 1.
As to “AUUACCCGGUUCAUCGAGUGA [Fam2.1 aminoacylation ribozyme variant]”, the self-aminoacylation in the series on biotinyl-Ile-oxazolone was 3.67; with biotinyl-Leu-oxazolone, 6.51; in the series with biotinyl-Val-oxazolone, 4.41; in the series with biotinyl-Phe-oxazolone, 16.5; in the series on biotinyl-Trp-oxazolone, 7.78; in the series on biotinyl-Met-oxazolone, 6.36.
For the sequence “CUACUUUAAUCAAUCGGUCUG [Fam1A.1 aminoacylation ribozyme variant]”, the self-aminoacylation was found to be 0.955 in the series with biotinyl-Ile-oxazolone; 0.78 in the series with biotinyl-Leu-oxazolone; 0.915 in the series on biotinyl-Val-oxazolone; 1.43 with biotinyl-Phe-oxazolone; 0.755 with biotinyl-Trp-oxazolone; 0.892 with biotinyl-Met-oxazolone.
Turning to “AUUACACUGGUCACCGAGUGA [Fam2.1 aminoacylation ribozyme variant]”, the self-aminoacylation is 2.95 in the series with biotinyl-Ile-oxazolone; 5.41 with biotinyl-Leu-oxazolone; 2.91 with biotinyl-Val-oxazolone; 24.5 in the series on biotinyl-Phe-oxazolone; 7.35 in the series with biotinyl-Trp-oxazolone; 5.29 in the series on biotinyl-Met-oxazolone.
In the case of “AUUCACCUAGGUAAUCGGGUA [Fam2.2 aminoacylation ribozyme variant]”, the self-aminoacylation with biotinyl-Ile-oxazolone is 1.39; with biotinyl-Leu-oxazolone, 1.33; with biotinyl-Val-oxazolone it was 1.47; in the series with biotinyl-Phe-oxazolone, 5.56; with biotinyl-Trp-oxazolone, 1.8; in the series on biotinyl-Met-oxazolone it was 1.55.
In the case of “AUUUACCUAGGUCAUCGCGUG [Fam2.2 aminoacylation ribozyme variant]”, the self-aminoacylation with biotinyl-Ile-oxazolone was found to be 5.32; in the series with biotinyl-Leu-oxazolone, 13.6; in the series on biotinyl-Val-oxazolone, 5.84; in the series on biotinyl-Phe-oxazolone it was 82.1; in the series with biotinyl-Trp-oxazolone, 9.58; with biotinyl-Met-oxazolone, 9.66.
